Source: article doi:10.1101/2022.06.28.498018 (bioRxiv, 2022)

What was measured:
[1] = target: P116 variant Trp681Ala (Mycoplasma pneumoniae) (UniProt P75556); test: SEC-MALS
cryo-EM structure = target: the molecule itself; test: cryo-EM structure

“P116 variant Trp681Ala (from UniProt P75556 30-957) (domain or fragment)” was tested, and the ratio of dimers to monomers (dimers per monomer) [1] was 0.25.

B1: P116 ectodomain (residues 30-957) from Mycoplasma pneumoniae (domain or fragment, UniProt P75556 30-957, looked up)
chain: NKTHQVEHESEQSDFQDIRFGLNSVKLPKAQPAAATRITVENGTDKLVNYKSSPQQLFLAKNALKDKLQGEFDKFLSDAKAFPALTADLQEWVDQQLFNPNQSFFDLSAPRSNFTLSSDKKASLDFIFRFTNFTESVQLLKLPEGVSVVVDSKQSFDYYVNASAQKLLVLPLSLPDYTLGLNYMFDHITLNGKVVNKFSFNPFKTNLNLAFSNVYNGVDVFEAQKNLVGKGKYLNTHVKAEDVKKDVNANIKNQFDIAKIIAELMGKALKEFGNQQEGQPLSFLKVMDKVKEDFEKLFNLVRPGLGKFVKDLIQSSSQAENKITVYKLIFDNKKTILNLLKELSIPELNSSLGLVDVLFDGITDSDGLYERLQSFKDLIVPAVKTNEKTAALSPLIEELLTQKDTYVFDLIQKHKGILTNLLKNFLADFQKSTPFMADQVAIFTELFDNEGAFDLFGEADFVDKIAELFLTKRTVKNGEKIETKDSLLVTSLKSLLGEKVAALGDLLDSYIFKNELLNRSVEVAKAEAKDTKGATDYKKEQAKALKKLFKHIGENTLSKTNLDKITLKEVKNTENVELEETETTLKVKKLDVEYKVELGNFEIKNGLIKAMLEFLPDTKDLETTLDKLLFKGESYKAMKDKYIKEGFPGYGWAKGVVPGAFESIENTFKSAIDKTKSIRDLFGDMLFGNDLSSVKETDSFITLGGSFDIKYGGENLNVLPAYYSLINSEIGYQIIGVDTTIDATKVKVELKNKEYKGKSPAINGQVKLSQSFFNVWTNMFDSITKQIFQKKYEFKDNIQVFARNEDNTSRLELDISDPEQRVIPFAFVDGFGIQLKAVDKNITKEAGNTEPKSPVIQLYEALNKEKDQKQQSKQSPKQLDTKTQLGYLLKLGDNWSKDDYKSLIDDTIINNNYLEASFNSKITVDRLG
In the case of B1, the “stoichiometry N” value (cryo-EM structure) is reported as 2.
